In article PMC4837377 (Scientific Reports, 2016):

B1: RanBP5 (residues 1-1115) co-expressed in the PA-PB1(1-686)-RanBP5 polyprotein (construct 21) (natural protein)
chain: MPEDQVGKLEATENTISAMAAAAAEQQQFYLLLGNLLSPDNVVRKQAEETYENIPGQSKITFLLQAIRNTTAAEEARQMAAVLLRRLLSSAFDEVYPALPSDVQTAIKSELLMIIQMETQSSMRKKVCDIAAELARNLIDEDGNNQWPEGLKFLFDSVSSQNVGLREAALHIFWNFPGIFGNQQQHYLDVIKRMLVQCMQDQEHPSIRTLSARATAAFILANEHNVALFKHFADLLPGFLQAVNDSCYQNDDSVLKSLVEIADTVPKYLRPHLEATLQLSLKLCGDTSLNNMQRQLALEVIVTLSETAAAMLRKHTNIVAQTIPQMLAMMVDLEEDEDWANADELEDDDFDSNAVAGESALDRMACGLGGKLVLPMIKEHIMQMLQNPDWKYRHAGLMALSAIGEGCHQQMEGILNEIVNFVLLFLQDPHPRVRYAACNAVGQMATDFAPGFQKKFHEKVIAALLQTMEDQGNQRVQAHAAAALINFTEDCPKSLLIPYLDNLVKHLHSIMVLKLQELIQKGTKLVLEQVVTSIASVADTAEEKFVPYYDLFMPSLKHIVENAVQKELRLLRGKTIECISLIGLAVGKEKFMQDASDVMQLLLKTQTDFNDMEDDDPQISYMISAWARMCKILGKEFQQYLPVVMGPLMKTASIKPEVALLDTQDMENMSDDDGWEFVNLGDQQSFGIKTAGLEEKSTACQMLVCYAKELKEGFVEYTEQVVKLMVPLLKFYFHDGVRVAAAESMPLLLECARVRGPEYLTQMWHFMCDALIKAIGTEPDSDVLSEIMHSFAKCIEVMGDGCLNNEHFEELGGILKAKLEEHFKNQELRQVKRQDEDYDEQVEESLQDEDDNDVYILTKVSDILHSIFSSYKEKVLPWFEQLLPLIVNLICPHRPWPDRQWGLCIFDDVIEHCSPASFKYAEYFLRPMLQYVCDNSPEVRQAAAYGLGVMAQYGGDNYRPFCTEALPLLVRVIQSADSKTKENVNATENCISAVGKIMKFKPDCVNVEEVLPHWLSWLPLHEDKEEAVQTFNYLCDLIESNHPIVLGPNNTNLPKIFSIIAEGEMHEAIKHEDPCAKRLANVVRQVQTSGGLWTECIAQLSPEQQAAIQELLNSA
B2: PA-PB1(1-686) heterodimer (construct 1) (complex)
chain 1: […]
chain 2: MDVNPTLLFLKVPAQNAISTTFPYTGDPPYSHGTGTGYTMDTVNRTHQYSEKGKWTTNTETGAAQLNPIDGPLPEDNEPSGYAQTDCVLEAMAFLEESHPGIFENSCLETMEVVQQTRVDRLTQGRQTYDWTLNRNQPAATALANTIEVFRSNGLIANESGRLIDFLKDVIESMDKEEMEITTHFQRKRRVRDNMTKKMVTQRTIGKKKQRVNKRSYLIRALTLNTMTKDAERGKLKRRAIATPGMQIRGFVYFVETLARSICEKLEQSGLPVGGNEKKAKLANVVRKMMTNSQDTELSFTITGDNTKWNENQNPRMFLAMITYITKNQPEWFRNILSIAPIMFSNKMARLGKGYMFESKRMKLRTQIPAEMLASIDLKYFNESTRKKIEKIRPLLIDGTASLSPGMMMGMFNMLSTVLGVSILNLGQKKYTKTTYWWDGLQSSDDFALIVNAPNHEGIQAGVDRFYRTCKLVGINMSKKKSYINRTGTFEFTSFFYRYGFVANFSMELPSFGVSGINESADMSIGVTVIKNNMINNDLGPATAQMALQLFIKDYRYTYRCHRGDTQIQTRRSFELKKLWEQTRSKAGLLVSDGGPNLYNIRNLHIPEVCLKWELMDEDYQGRLCNPLNPFVSHKEIESVNNAVVMPAHGPAKSMEYDAVATTHSWIPKRNRSILNTSQRGILEDE

How the values were obtained:
[1] = biological target: B2; assay: SEC-SAXS; conditions: both partners purified
[2] = biological target: B1; assay: co-purification (nickel resin, heparin, SEC); conditions: partners not purified

| Binder | stoichiometry N [1] | binding result [2] |
| --- | --- | --- |
| B1 | 1 | – |
| B2 | – | binds |
